Measurements from paper PMC4715599 (Molecular microbiology, 2015).

Biological target: MalFGK2 (Escherichia coli, UniProt P02916+P68183+P68187)
Assay type: biochemical

Row | Compound | stimulation of MBP-dependent ATPase activity by maltose (transporter reconstituted in nanodiscs) | ATPase activity in the absence of MBP (MalFGK2 in nanodiscs) | basal ATPase activity (in detergent, absence of MBP)
1 | OC[C@H]1O[C@H](O[C@H]2[C@H](O)[C@@H](O)C(O)O[C@@H]2CO)[C@H](O)[C@@H](O)[C@@H]1O (mixture of isomers) [maltose, reference compound] | about 10 fold |  | 
2 | MalFGK2: E. coli maltose ABC transporter complex: MalF, MalG and MalK dimer |  | did not exhibit any detectable ATPase activity | ~ 122 nmol/min/mg
